Data: US20250276075A1, “METHODS OF TREATING AXL-EXPRESSING CANCERS WITH ANTI-AXL ANTIBODIES, ANTIBODY FRAGMENTS AND THEIR IMMUNOCONJUGATES” (BIOATLA, INC., priority 2020, published 2025)

Assay: Phase 1 clinical study of BA3011: safety (adverse events, DLT, MTD, RP2D)
Type: in vivo, human
Source text: MTD evaluation will be based on the DLT-evaluable Population. The DLT-evaluable Population includes all patients enrolled in Phase 1 dose escalation who receive at least 1 full assigned dose of BA3011 and complete the safety follow-up through the DLT-evaluation period (defined as the time period from the first dose of BA3011 through 21 days post Dose 1) or experience any DLT during the DLT-evaluation period. Non-DLT-evaluable patients will be replaced. The safety evaluation will be based on the As-Treated Population. Adverse events (AEs) will be coded by Medical Dictionary for Regulatory Activities (MedDRA) and graded according to the NCI CTCAE v4.03, and the type, incidence, severity, and relationship to each IP will be summarized. If any associations of interest between AEs and baseline characteristics are observed, additional stratified results may be presented. All treatment-emergent AEs will be summarized by MedDRA system organ class and preferred term. Laboratory abnormalities with toxicity grades according to the NCI CTCAE will be summarized.
A DLT is defined as meeting 1 of the following criteria during the 21-day DLT evaluation period or a treatment-related toxicity of any grade requiring dose delay of 1 week or more between the first and second cycles: • Non-hematologic Toxicity • For non-hematologic toxicities, DLT will be defined as any National Cancer Institute (NCI) Common Terminology Criteria for Adverse Events (CTCAE) v4.03 (published 14 Jun. 2010) Grade 3 or greater toxicity at least possibly related to treatment, except for: • Grade 3 fatigue. • Grade 3 nausea and vomiting lasting less than 24 hours. • Grade 3 non-hematologic laboratory abnormalities that are asymptomatic and resolve to Grade 1 or baseline (if the patient entered the study with existing toxicity) within 14 days. • Grade 3 or 4 allergic or hypersensitivity reaction at first occurrence in the absence of prophylactic steroid that resolves in less than 6 hours with appropriate clinical intervention
• DLT for hematologic toxicity, using NCI CTCAE v4.03, will be defined as: • Grade 4 neutropenia lasting greater than 7 days. • Grade 3 or 4 febrile neutropenia. • Grade 4 platelet count (<25,000/mm3) at any time.
Study BA3011-001 was an ongoing, multi-center, open-label, Phase 1/2 first-in-human trial of BA3011.
In Phase 1 (NCT03425279), BA3011 was administered once (Q3W) or twice (2Q3W) every 3 weeks via intravenous (IV) infusion.

[1] = All TEAEs, All Grades, sarcoma patients, Phase 1
[2] = All TEAEs, Grade 3, sarcoma patients, Phase 1
[3] = All TEAEs, Grade 4, sarcoma patients, Phase 1
[4] = Related TEAEs, All Grades, sarcoma patients, Phase 1
[5] = Related TEAEs, Grade 3, sarcoma patients, Phase 1
[6] = Related TEAEs, Grade 4, sarcoma patients, Phase 1
[7] = Total, 26 sarcoma patients, Phase 1

B1: Mecbotamab vedotin (conjugate, chains of the INN, looked up)
VH: EVQLVQSGAEVKKPGATVKISCKVSGYSFWGATMNWIRQPPGKGLEWIGLIKPSNGGTSYNQKFKGRVTISADKSISTAYLQWSSLKASDTAMYYCAHGHYESYEAMDYWGQGTLVTVSS
VL: DIQMTQSPSSLSASVGDRVTITCKASQDVVSAVAWYQQKPGQAPRLLIYWQDTRHTGVPSRFSGSGSGTEFTLTISSLQPDDFATYYCQEHFSPPLTFGQGTKVEIK
modifications: MC-vc-PAB-MMAE conjugate
With B1 the “Stomatitis, %” value [1] was “(3.8) %”, the “Vomiting, %” value [1] was “(23.9) %” and the “Anemia, %” value [2] was “(7.7) %”. For the same molecule, the “Aspartate aminotransferase increased, %” value [2] was “(3.8) %”, the “Blood bilirubin increased, %” value [2] was “(3.8) %” and the “Constipation, %” value [2] was “(3.8) %”. The “Hypokalemia, %” value [2] was “(11.5) %”, the “Hyponatremia, %” value [2] was “(7.7) %” and the “Lymphocyte count decreased, %” value [2] was “(3.8) %”. For the same molecule, the “Nausea, %” value [2] was “(3.8) %”, the “Neutrophil count decreased, %” value [2] was “(15.4) %” and the “Patients with at least one TEAE, %” value [2] was “(57.7) %”. For the same molecule, the “Peripheral neuropathy, %” value [2] was “(3.8) %”, the “Stomatitis, %” value [2] was “(3.8) %” and the “Vomiting, %” value [2] was “(3.8) %”. The “Neutrophil count decreased, %” value [3] was 3.8%, the “Patients with at least one TEAE, %” value [3] was 7.7% and the “on-target toxicity to normal AXL-expressing tissue” value (Phase 1) was “No clinically meaningful on-target toxicity was observed”. For the same molecule, the rate of constipation (Phase 1) was “low”, the dose-limiting toxicities (Phase 1, highest dose tested) was “limited to monomethyl auristatin E (MMAE) conjugate-associated toxicity at the highest dose tested, including reversible neutropenia” and the “SAE related to treatment (grade 2 hepatic encephalopathy)” value (Phase 1 sarcoma patients) was 1 patient. For the same molecule, the “patients with grade 3 related TEAEs” value (Phase 1 sarcoma patients) was “Eleven”, the “patients with grade 4 neutropenia” value (Phase 1 sarcoma patients) was 1 patient and the “treatment-emergent adverse events (TEAEs) leading to death” value (Phase 1 sarcoma patients) was “no treatment-emergent adverse events (TEAEs) leading to death”. The “treatment-related TEAEs leading to treatment discontinuation” value (Phase 1 sarcoma patients) was 2 (7.7%) patients, the “Alanine aminotransferase increased, %” value [4] was “(38.5) %” and the “Alopecia, %” value [4] was “(23.1) %”. For the same molecule, the “Anemia, %” value [4] was “(3.8) %”, the “Arthralgia, %” value [4] was “(3.8) %” and the “Aspartate aminotransferase increased, %” value [4] was “(42.3) %”. The “Blood alkaline phosphatase increased, %” value [4] was “(19.2) %”, the “Blood bilirubin increased, %” value [4] was “(3.8) %” and the “Bone pain, %” value [4] was “(3.8) %”. For the same molecule, the “Constipation, %” value [4] was “(15.4) %”, the “Decreased appetite, %” value [4] was “(15.4) %” and the “Diarrhea, %” value [4] was “(19.2) %”. For the same molecule, the “Fatigue, %” value [4] was “(42.3) %”, the “Hypokalemia, %” value [4] was “(15.4) %” and the “Hyponatremia, %” value [4] was “(3.8) %”. For the same molecule, the “Lymphocyte count decreased, %” value [4] was “(7.7) %”, the “Nausea, %” value [4] was “(38.5) %” and the “Neutrophil count decreased, %” value [4] was “(26.9) %”. For the same molecule, the “Patients with at least one TEAE, %” value [4] was “(84.6) %”, the “Peripheral neuropathy, %” value [4] was “(15.4) %” and the “Stomatitis, %” value [4] was “(3.8) %”. The “Vomiting, %” value [4] was “(19.2) %”, the “Anemia, %” value [5] was “(3.8) %” and the “Aspartate aminotransferase increased, %” value [5] was “(3.8) %”. For the same molecule, the “Blood bilirubin increased, %” value [5] was “(3.8) %”, the “Hypokalemia, %” value [5] was “(11.5) %” and the “Hyponatremia, %” value [5] was “(3.8) %”. For the same molecule, the “Lymphocyte count decreased, %” value [5] was “(3.8) %”, the “Nausea, %” value [5] was “(3.8) %” and the “Neutrophil count decreased, %” value [5] was “(15.4) %”. The “Patients with at least one TEAE, %” value [5] was “(42.3) %”, the “Peripheral neuropathy, %” value [5] was “(3.8) %” and the “Stomatitis, %” value [5] was “(3.8) %”. The “Vomiting, %” value [5] was “(3.8) %”, the “Neutrophil count decreased, %” value [6] was 3.8% and the “Patients with at least one TEAE, %” value [6] was 3.8%. The “Any TEAE, % of patients” value [7] was “(100.0)%”, the “Any TEAE, no. of patients” value [7] was 26 and the “Any related serious TEAE, % of patients” value [7] was “(3.8%)”. For the same molecule, the “Any related serious TEAE, no. of patients” value [7] was 1, the “Any serious TEAE, % of patients” value [7] was “(34.6%)” and the “Any serious TEAE, no. of patients” value [7] was 9. The “Related TEAE leading to treatment discontinuation, no. of patients” value [7] was 2, the “Related TEAEs with CTCAE grade 3 or 4, % of patients” value [7] was “(46.2%)” and the “Related TEAEs with CTCAE grade 3 or 4, no. of patients” value [7] was 12. The “TEAE leading to treatment discontinuation, % of patients” value [7] was “(7.7%)”, the “TEAE leading to treatment discontinuation, no. of patients” value [7] was 2 and the “TEAE with CTCAE grade 3 or 4, % of patients” value [7] was “(65.4%)”. For the same molecule, the “TEAE with CTCAE grade 3 or 4, no. of patients” value [7] was 17, the “TEAEs leading to death, no. of patients” value [7] was 0 and the “transient grade 1-2 liver enzyme elevations” value (seen during cycle 1 treatment) was “generally did not re-occur upon re-treatment”. The creatinine levels (throughout treatment) was “generally unchanged throughout treatment”.
